Data reported in the supplement of paper PMC7877785.
± gives the uncertainty stated by the source.

Assay: self-splicing fitness, log relative to wild type (ln ratio); higher = more splicing; Tetrahymena group I intron in knt gene, E. coli kanamycin selection, DiMSum; sequences stand for … in CUCUCU…GGAGGGAAAAGUUAUCAGGCAUGCACCUGGUAGCUAGUCUUUAAACCAAUAGAUUGCAUCGGUUUAAAAGGCAAGACCGUCAAAUUGCGGGAAAGGGGUCAACAGCCGUUCAGUACCAAGUCUCAGGGGAAACUUUGAGAUGGCCUUGCAAAGGGUAUGGUAAUAAGCUGACGGACAUGGUCCUAACCACGCAGCCAAGUCCUAAGUCAACAGAUCUUCUGUUGAUAUGGAUGCAGUUCACAGACUAAAUGUCGGUCGGGGAAGAUGUAUUCUUCUCAUAAGAUAUAGUCGGACCUCUCCUUAAUGGGAGCUAGCGGAUGAAGUGAUGCAACACUGGAGCCGCUGGGAACUAAUUUGUAUGCGAAAGUAUAUUGAUUAGUUUUGGAGUACUCGUGGUCG
Summary of the method: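 Library with all eight P1ex-region intron nucleotides randomised, intron inside the knt kanamycin-resistance gene on pET-22b(+), in E. coli BL21(DE3). Cells grew overnight at 37°C or 30°C on LB agar with or without 25 μg/mL kanamycin (plus 100 μg/mL carbenicillin, 50 μM IPTG, 0.2% rhamnose), in six replicate transformations. Pooled colonies were amplicon-sequenced on Illumina HiSeq 2500. DiMSum fitness is the error-weighted combination of wild-type-normalised replicate fold changes, kanamycin versus none.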

CUCCAGCAAUAUUACGGCAU
self-splicing fitness (ln) (37 °C): -2.56 ± 0.39

CUCCAGCAAUAUUACGGGCC
self-splicing fitness (ln) (30 °C): -1.01 ± 0.26

CUCCAGCAAUAUUACGGGCU
self-splicing fitness (ln) (30 °C): -3.21 ± 0.13
self-splicing fitness (ln) (37 °C): -2.49 ± 0.18

CUCCAGCAAUAUUACGGGGC
self-splicing fitness (ln) (30 °C): -4.13 ± 0.23
self-splicing fitness (ln) (37 °C): -2.56 ± 0.17

CUCCAGCAAUAUUACGGGGU
self-splicing fitness (ln) (30 °C): -3.58 ± 0.17
self-splicing fitness (ln) (37 °C): -2.61 ± 0.19

CUCCAGCAAUAUUACGUAAC
self-splicing fitness (ln) (30 °C): -3.3 ± 0.13
self-splicing fitness (ln) (37 °C): -3.08 ± 0.2

CUCCAGCAAUAUUACGUCAU
self-splicing fitness (ln) (30 °C): -2.15 ± 0.13
self-splicing fitness (ln) (37 °C): -2.84 ± 0.24

CUCCAGCAAUAUUACGUCCU
self-splicing fitness (ln) (30 °C): -3.42 ± 0.28
self-splicing fitness (ln) (37 °C): -3.01 ± 0.38

CUCCAGCAAUAUUACGUCUA
self-splicing fitness (ln) (30 °C): -4.32 ± 0.24
self-splicing fitness (ln) (37 °C): -3.05 ± 0.18

CUCCAGCAAUAUUACGUCUC
self-splicing fitness (ln) (30 °C): -2.97 ± 0.17
self-splicing fitness (ln) (37 °C): -3.71 ± 0.33

CUCCAGCAAUAUUACGUGUC
self-splicing fitness (ln) (30 °C): -3.56 ± 0.22
self-splicing fitness (ln) (37 °C): -2.55 ± 0.23

CUCCAGCAAUAUUACGUUUG
self-splicing fitness (ln) (30 °C): -3.57 ± 0.12
self-splicing fitness (ln) (37 °C): -2.1 ± 0.11

CUCGAGCAAUAUUACGAAGA
self-splicing fitness (ln) (30 °C): -2.78 ± 0.29
self-splicing fitness (ln) (37 °C): -1.64 ± 0.25

CUCGAGCAAUAUUACGAAUA
self-splicing fitness (ln) (30 °C): -3.12 ± 0.3
self-splicing fitness (ln) (37 °C): -2.59 ± 0.28

CUCGAGCAAUAUUACGACAA
self-splicing fitness (ln) (30 °C): -2.69 ± 0.19
self-splicing fitness (ln) (37 °C): -2.65 ± 0.19

CUCGAGCAAUAUUACGACCC
self-splicing fitness (ln) (37 °C): -1.61 ± 0.46

CUCGAGCAAUAUUACGAGCA
self-splicing fitness (ln) (30 °C): -4.04 ± 0.42
self-splicing fitness (ln) (37 °C): -2.09 ± 0.27

CUCGAGCAAUAUUACGAGGU
self-splicing fitness (ln) (30 °C): -3.53 ± 0.24
self-splicing fitness (ln) (37 °C): -2.58 ± 0.21

CUCGAGCAAUAUUACGAGUU
self-splicing fitness (ln) (37 °C): -2.42 ± 0.24

CUCGAGCAAUAUUACGAUUA
self-splicing fitness (ln) (30 °C): -3.13 ± 0.3
self-splicing fitness (ln) (37 °C): -2.56 ± 0.26

CUCGAGCAAUAUUACGCCGA
self-splicing fitness (ln) (30 °C): -1.32 ± 0.19
self-splicing fitness (ln) (37 °C): -2.42 ± 0.24

CUCGAGCAAUAUUACGCUAA
self-splicing fitness (ln) (37 °C): -2.34 ± 0.36

CUCGAGCAAUAUUACGCUUC
self-splicing fitness (ln) (30 °C): -3.71 ± 0.3
self-splicing fitness (ln) (37 °C): -2.24 ± 0.29

CUCGAGCAAUAUUACGGCCA
self-splicing fitness (ln) (30 °C): -2.34 ± 0.24
self-splicing fitness (ln) (37 °C): -3.47 ± 0.35

CUCGAGCAAUAUUACGGGGU
self-splicing fitness (ln) (30 °C): -3.46 ± 0.18
self-splicing fitness (ln) (37 °C): -2.54 ± 0.22

CUCGAGCAAUAUUACGGUAG
self-splicing fitness (ln) (30 °C): -2.62 ± 0.16
self-splicing fitness (ln) (37 °C): -0.386 ± 0.12

CUCGAGCAAUAUUACGUAUA
self-splicing fitness (ln) (37 °C): -2.29 ± 0.31

CUCUAGCAAUAUUACGACGC
self-splicing fitness (ln) (37 °C): -1.31 ± 0.35

CUCUAGCAAUAUUACGACUU
self-splicing fitness (ln) (37 °C): -3.23 ± 0.31

CUCUAGCAAUAUUACGCGCU
self-splicing fitness (ln) (30 °C): -2.55 ± 0.3
self-splicing fitness (ln) (37 °C): -3.61 ± 0.27

CUCUAGCAAUAUUACGCUAG
self-splicing fitness (ln) (30 °C): -3.15 ± 0.25
self-splicing fitness (ln) (37 °C): -1.85 ± 0.28

CUCUAGCAAUAUUACGGACU
self-splicing fitness (ln) (37 °C): -4.16 ± 0.39

CUCUAGCAAUAUUACGGAGC
self-splicing fitness (ln) (30 °C): -3.72 ± 0.27
self-splicing fitness (ln) (37 °C): -3.48 ± 0.26

CUCUAGCAAUAUUACGGCAG
self-splicing fitness (ln) (30 °C): -2.41 ± 0.28
self-splicing fitness (ln) (37 °C): -2.72 ± 0.44

CUCUAGCAAUAUUACGGGCA
self-splicing fitness (ln) (30 °C): -2.62 ± 0.23
self-splicing fitness (ln) (37 °C): -2.29 ± 0.23

CUCUAGCAAUAUUACGGGCG
self-splicing fitness (ln) (30 °C): -2.25 ± 0.17
self-splicing fitness (ln) (37 °C): -2.36 ± 0.19

CUCUAGCAAUAUUACGUACA
self-splicing fitness (ln) (30 °C): -3.04 ± 0.38
self-splicing fitness (ln) (37 °C): -1.89 ± 0.24

CUCUAGCAAUAUUACGUAUG
self-splicing fitness (ln) (30 °C): -3.02 ± 0.21
self-splicing fitness (ln) (37 °C): -1.61 ± 0.15

CUCUAGCAAUAUUACGUCAG
self-splicing fitness (ln) (30 °C): -2.85 ± 0.23
self-splicing fitness (ln) (37 °C): -2.34 ± 0.32

CUCUAGCAAUAUUACGUCCG
self-splicing fitness (ln) (30 °C): -2.91 ± 0.18
self-splicing fitness (ln) (37 °C): -0.955 ± 0.14

CUCUAGCAAUAUUACGUCCU
self-splicing fitness (ln) (30 °C): -2.87 ± 0.39

CUCUAGCAAUAUUACGUGAG
self-splicing fitness (ln) (30 °C): -3.45 ± 0.18
self-splicing fitness (ln) (37 °C): -2.12 ± 0.19

CUCUAGCAAUAUUACGUGUU
self-splicing fitness (ln) (30 °C): -3.44 ± 0.15
self-splicing fitness (ln) (37 °C): -2.39 ± 0.12

CUCUAGCAAUAUUACGUUCG
self-splicing fitness (ln) (30 °C): -3.54 ± 0.19
self-splicing fitness (ln) (37 °C): -2.33 ± 0.18

CUCUAGCAAUAUUACGUUGG
self-splicing fitness (ln) (30 °C): -3.9 ± 0.22
self-splicing fitness (ln) (37 °C): -2.92 ± 0.23

CUCUAGCAAUAUUACGUUUG
self-splicing fitness (ln) (30 °C): -3.43 ± 0.13
self-splicing fitness (ln) (37 °C): -2.27 ± 0.14

CUGAAGCAAUAUUACGAAUG
self-splicing fitness (ln) (30 °C): -0.544 ± 0.083
self-splicing fitness (ln) (37 °C): 0.252 ± 0.12

CUGAAGCAAUAUUACGACCU
self-splicing fitness (ln) (30 °C): -3.63 ± 0.4
self-splicing fitness (ln) (37 °C): -3.1 ± 0.18

CUGAAGCAAUAUUACGAGCU
self-splicing fitness (ln) (30 °C): -3.42 ± 0.21
self-splicing fitness (ln) (37 °C): -2.84 ± 0.27

CUGAAGCAAUAUUACGAGGC
self-splicing fitness (ln) (30 °C): -3.15 ± 0.17
self-splicing fitness (ln) (37 °C): -1.69 ± 0.16

CUGAAGCAAUAUUACGAUUU
self-splicing fitness (ln) (30 °C): -3.34 ± 0.2
self-splicing fitness (ln) (37 °C): -1.6 ± 0.24

CUGAAGCAAUAUUACGCAUA
self-splicing fitness (ln) (30 °C): -3.91 ± 0.3
self-splicing fitness (ln) (37 °C): -2.57 ± 0.32

CUGAAGCAAUAUUACGCGCC
self-splicing fitness (ln) (30 °C): -3.07 ± 0.31

CUGAAGCAAUAUUACGCGUU
self-splicing fitness (ln) (30 °C): -3.36 ± 0.18
self-splicing fitness (ln) (37 °C): -2.86 ± 0.24

CUGAAGCAAUAUUACGCUCC
self-splicing fitness (ln) (30 °C): -2.74 ± 0.34

CUGAAGCAAUAUUACGCUGA
self-splicing fitness (ln) (30 °C): -3.66 ± 0.24
self-splicing fitness (ln) (37 °C): -3.28 ± 0.43

CUGAAGCAAUAUUACGGGCU
self-splicing fitness (ln) (30 °C): -3.56 ± 0.17
self-splicing fitness (ln) (37 °C): -3.15 ± 0.21

CUGAAGCAAUAUUACGGGGU
self-splicing fitness (ln) (30 °C): -3.34 ± 0.24
self-splicing fitness (ln) (37 °C): -0.289 ± 0.17

CUGAAGCAAUAUUACGGGUA
self-splicing fitness (ln) (30 °C): -3.21 ± 0.15
self-splicing fitness (ln) (37 °C): -3.96 ± 0.42

CUGAAGCAAUAUUACGGGUC
self-splicing fitness (ln) (30 °C): -3.92 ± 0.4

CUGAAGCAAUAUUACGGGUG
self-splicing fitness (ln) (30 °C): -0.0462 ± 0.047
self-splicing fitness (ln) (37 °C): 0.304 ± 0.071

CUGAAGCAAUAUUACGGUUA
self-splicing fitness (ln) (30 °C): -4.2 ± 0.35
self-splicing fitness (ln) (37 °C): -2.52 ± 0.28

CUGAAGCAAUAUUACGUACG
self-splicing fitness (ln) (30 °C): 0.694 ± 0.073
self-splicing fitness (ln) (37 °C): 0.514 ± 0.09

CUGAAGCAAUAUUACGUCGU
self-splicing fitness (ln) (30 °C): -3.23 ± 0.26
self-splicing fitness (ln) (37 °C): -1.79 ± 0.21

CUGAAGCAAUAUUACGUCUG
self-splicing fitness (ln) (30 °C): 0.302 ± 0.069
self-splicing fitness (ln) (37 °C): 0.352 ± 0.08

CUGAAGCAAUAUUACGUGGG
self-splicing fitness (ln) (30 °C): -2.66 ± 0.095
self-splicing fitness (ln) (37 °C): -1.89 ± 0.11

CUGAAGCAAUAUUACGUGUC
self-splicing fitness (ln) (30 °C): -2.53 ± 0.14
self-splicing fitness (ln) (37 °C): -2.81 ± 0.28

CUGAAGCAAUAUUACGUUAU
self-splicing fitness (ln) (30 °C): -4.59 ± 0.23
self-splicing fitness (ln) (37 °C): -3.63 ± 0.37

CUGAAGCAAUAUUACGUUCA
self-splicing fitness (ln) (30 °C): -1.87 ± 0.11
self-splicing fitness (ln) (37 °C): -0.567 ± 0.12

CUGAAGCAAUAUUACGUUCG
self-splicing fitness (ln) (30 °C): 0.231 ± 0.06
self-splicing fitness (ln) (37 °C): -0.181 ± 0.082

CUGCAGCAAUAUUACGAAAA
self-splicing fitness (ln) (37 °C): -2.19 ± 0.31

CUGCAGCAAUAUUACGAAAC
self-splicing fitness (ln) (37 °C): -1.87 ± 0.37

CUGCAGCAAUAUUACGAAAG
self-splicing fitness (ln) (30 °C): -1.42 ± 0.14
self-splicing fitness (ln) (37 °C): -1.47 ± 0.15

CUGCAGCAAUAUUACGCAAG
self-splicing fitness (ln) (30 °C): -2.58 ± 0.18
self-splicing fitness (ln) (37 °C): -2.83 ± 0.44

CUGCAGCAAUAUUACGCCUU
self-splicing fitness (ln) (30 °C): -2.87 ± 0.15
self-splicing fitness (ln) (37 °C): -2.94 ± 0.29

CUGCAGCAAUAUUACGCGUG
self-splicing fitness (ln) (30 °C): -1.92 ± 0.12
self-splicing fitness (ln) (37 °C): -1.67 ± 0.16

CUGCAGCAAUAUUACGGAGG
self-splicing fitness (ln) (30 °C): -2.5 ± 0.13
self-splicing fitness (ln) (37 °C): -2.03 ± 0.21

CUGCAGCAAUAUUACGGGCC
self-splicing fitness (ln) (37 °C): -1.2 ± 0.5

CUGCAGCAAUAUUACGGGGC
self-splicing fitness (ln) (30 °C): -3.94 ± 0.22
self-splicing fitness (ln) (37 °C): -1.83 ± 0.18

CUGCAGCAAUAUUACGGGGU
self-splicing fitness (ln) (30 °C): -4.93 ± 0.45
self-splicing fitness (ln) (37 °C): -2.73 ± 0.2

CUGCAGCAAUAUUACGUAUC
self-splicing fitness (ln) (30 °C): -4.37 ± 0.19
self-splicing fitness (ln) (37 °C): -2.73 ± 0.18
